Numbering of substitutions follows the chain as printed. In names and notes the source's numbering stands. Entries after “also recorded” stand apart in the source; their conditions may differ.
What was measured:
His6-Csa3Sso (WT) [1] = biological target: T1, His6-Csa3Sso (WT) (Saccharolobus solfataricus, UniProt Q97Y88); test: Microscale thermophoresis (MST) binding of cOA ligands to wildtype Csa3Sso; details: MST
T1 construct: made in house; host or cells: E. coli BL21(DE3)-pLysS
T1 sequence (Q97Y88 1-237): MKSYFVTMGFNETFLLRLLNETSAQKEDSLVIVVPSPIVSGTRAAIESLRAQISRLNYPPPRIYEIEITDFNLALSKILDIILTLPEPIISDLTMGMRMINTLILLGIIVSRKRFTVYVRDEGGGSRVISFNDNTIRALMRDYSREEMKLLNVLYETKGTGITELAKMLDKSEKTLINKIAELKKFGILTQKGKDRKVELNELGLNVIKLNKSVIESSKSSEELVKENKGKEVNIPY
Procedure: The ligand-binding specificity of Csa3Sso (WT) and the role of Csa3Sso residues in ligand binding were determined by microscale Thermophoresis (MST). Wildtype or mutant His6-Csa3Sso (200 nM) was fluorescently labeled in 2× binding buffer (10 mM Na/K phosphate, pH 5.8, 10 mM MgCl2, 25 mM NaCl, and 0.05% Tween 20) using 100 nM RED-Tris NTA His-Tag labeling dye (Nanotemper Technologies, Inc) and incubated in the dark at room temperature for 30 min. Two millimolar stocks of synthetic ligands including cA3, cA4, and cA6 (Biolog Life Science Institute) or linear ribonucleotide 5′-rCrArArArA-3′ (Bio-Synthesis Inc) were serially diluted in a 1:1 ratio with nuclease-free water. The labeled proteins were then mixed with ligands in a 1:1 ratio. Only cA4 was used in the MST experiments with the Csa3Sso mutants (2 mM stocks of cA4 were used for F10A, F14A, G96A, and R98A mutants, and 20 μM stocks were used for E122A and E122Q mutants). The mixtures of proteins and ligands were incubated in the dark at room temperature for 30 min. The precipitated material was removed by centrifugation at 6000 rpm for 5 min. The supernatants were then loaded into Monolith NT.115 Series Premium capillaries in triplicate, and the thermophoresis was detected with 40% excitation power and 40% IR-laser power for an on-time of 20 s at 25 °C.
(§1) The binding affinities of oligonucleotides and PCas4a to Csa3Sso (WT and mutants) were analyzed according to the law of mass action in a standard fitting mode of MO.Affinity analysis software (version 2.3).

His6-Csa3Sso (WT) [2] = biological target: T1, His6-Csa3Sso (WT); test: MST binding of PCas4a promoter DNA to Csa3Sso with or without cOAs; details: 50-fold excess of cOA (25 μM)
Procedure: The MST experiment and data analysis for ligand-induced changes in Csa3Sso binding affinity with PCas4a was performed as mentioned above except for the following: 1 μM of His6-Csa3Sso (WT) was fluorescently labeled in 2× binding buffer with 40 nM RED-Tris NTA His-Tag labeling dye in the absence or presence of cA4 or cA6. The labeling mixtures were incubated in the dark at room temperature for 30 min. A 50 μM stock of PCas4a was serially diluted in 1:1 ratios with nuclease-free water. The labeled proteins ± ligands were then mixed with diluted PCas4a in a 1:1 ratio and incubated in the dark at room temperature for 30 min. The supernatants obtained after removal of precipitated material were then loaded into Monolith NT.115 Series Premium capillaries in triplicate, and the thermophoresis was detected with 100% excitation power and 60% IR-laser power for an on-time of 20 s at 25 °C.
as §1

Csa3Sso WT [3] = biological target: T2, Csa3Sso WT (Saccharolobus solfataricus P2, UniProt Q97Y88 1-237); test: MST; no cOA; precipitate removed; MST buffer not given in the material; Cy5 EMSA: 50 nM probe, 0.5-25 uM protein, 5% acrylamide TBE, 4 C; agarose EMSA: 2% TBE, room temperature; crystals: 20 mM; details: protein: recombinant; tags: N-terminal His6; chain copies: 2; blunt
T2 sequence: T1 sequence (Q97Y88 1-237)

[4] = biological target: the molecule itself; test: SEC; Superdex 200 16/70 gel filtration in buffer F (20 mM Tris-HCl pH 8.0, 50 mM NaCl), against globular standards
[5] = biological target: the molecule itself; test: AUC; sedimentation velocity, 20 °C, 40,000 rpm, 10 mM Na/KPO4 pH 5.8, 10 mM NaCl, 25 mM MgCl2; without cA4
Csa3Sso WT [6] = biological target: T2, Csa3Sso WT; test: MST; apparent Kd; MST buffer not given in the material; Cy5 EMSA: 50 nM probe, 0.5-25 uM protein, 5% acrylamide TBE, 4 C; agarose EMSA: 2% TBE, room temperature; crystals: 20 mM; details: protein: recombinant; tags: N-terminal His6; chain copies: 2; cyclic; no ends
Csa3Sso WT [7] = biological target: T2, Csa3Sso WT; test: MST; only nonspecific signal at >=250 uM; MST buffer not given in the material; Cy5 EMSA: 50 nM probe, 0.5-25 uM protein, 5% acrylamide TBE, 4 C; agarose EMSA: 2% TBE, room temperature; crystals: 20 mM; details: protein: recombinant; tags: N-terminal His6; chain copies: 2; cyclic; no ends
Csa3Sso WT [8] = biological target: T2, Csa3Sso WT; test: EMSA; no cA4; faint shifted band; MST buffer not given in the material; Cy5 EMSA: 50 nM probe, 0.5-25 uM protein, 5% acrylamide TBE, 4 C; agarose EMSA: 2% TBE, room temperature; crystals: 20 mM; details: protein: recombinant; tags: N-terminal His6; chain copies: 2; label: 5' Cy5 on top strand; blunt

Molecule: Nc1ncnc2c1ncn2[C@@H]1O[C@@H]2COP(=O)(O)O[C@H]3[C@@H](O)[C@H](n4cnc5c(N)ncnc54)O[C@@H]3COP(=O)(O)O[C@H]3[C@@H](O)[C@H](n4cnc5c(N)ncnc54)O[C@@H]3COP(=O)(O)O[C@H]3[C@@H](O)[C@H](n4cnc5c(N)ncnc54)O[C@@H]3COP(=O)(O)O[C@H]3[C@@H](O)[C@H](n4cnc5c(N)ncnc54)O[C@@H]3COP(=O)(O)O[C@H]3[C@@H](O)[C@H](n4cnc5c(N)ncnc54)O[C@@H]3COP(=O)(O)O[C@H]2[C@H]1O [cA6]
- specific binding to His6-Csa3Sso (His6-Csa3Sso (WT) [1]): only cA4 exhibited a specific low micromolar binding
- effect of excess cOA on PCas4a binding affinity of Csa3Sso (His6-Csa3Sso (WT) [2]): no significant effect; also recorded: did not significantly change

Molecule: Nc1ncnc2c1ncn2[C@@H]1O[C@@H]2COP(=O)(O)O[C@H]3[C@@H](O)[C@H](n4cnc5c(N)ncnc54)O[C@@H]3COP(=O)(O)O[C@H]3[C@@H](O)[C@H](n4cnc5c(N)ncnc54)O[C@@H]3COP(=O)(O)O[C@H]2[C@H]1O [cA3]
- specific binding to His6-Csa3Sso (His6-Csa3Sso (WT) [1]): lack of Csa3Sso binding

B1: PCas4a (dsDNA)
DNA 1: AAAGAATTCCCGAATTTACTAGGGAT
DNA 2: ATCCCTAGTAAATTCGGGAATTCTTT
- Kd (Csa3Sso WT [3]): 1.62 ± 0.17 µM

B2: Saccharolobus solfataricus Csa3 (Csa3Sso), N-terminally His6-tagged, wildtype (natural protein, UniProt Q97Y88 1-237, looked up)
chain: T1 sequence (Q97Y88 1-237)
notes: Csa3 (CRISPR Apern 3, a Csa3a homolog) of Saccharolobus solfataricus strain P2, Sso1445, UniProtKB Q97Y88; full-length; the His6-tagged construct has 248 a.a; (MW theor 28.1 kDa); Synthetic gene in pBB75 (or pET21b); also called His6-Csa3Sso; Csa3Sso (WT); source: E. coli BL21(DE3)-pLysS, purified (lysate heated at 65 °C, HisTrap, Mono-Q flow-through, Cibacron Blue, Superdex 200); not shown: …
- stoichiometry N [4]: 2

B3: Csa3Sso-R98A mutant, N-terminally His6-tagged (natural protein, Saccharolobus solfataricus, UniProt Q97Y88 1-237, looked up)
chain: T1 sequence (Q97Y88 1-237) with R98A
notes: Csa3 of Saccharolobus solfataricus strain P2, Sso1445, UniProtKB Q97Y88; full-length, with R98A; Synthetic gene in pBB75; source: E. coli BL21(DE3)-pLysS, purified (lysate heated at 65 °C, HisTrap, Mono-Q flow-through, Cibacron Blue, Superdex 200); not shown: His6, N-terminal, kept
- stoichiometry N [5]: 2

Molecule: AAAA (ssRNA, cyclic, 3'-5' linked tetra-adenylate (CHEBI:142457)) [cA4]
- Kd (Csa3Sso WT [6]): 5.8 ± 0.03 µM

Molecule: AAA (ssRNA, cyclic tri-adenylate) [cA3]
- binding result (Csa3Sso WT [7]): no binding

B4: Cy5-PCas4a (dsDNA)
DNA 1: AAAGAATTCCCGAATTTACTAGGGAT
DNA 2: ATCCCTAGTAAATTCGGGAATTCTTT
modifications: 5' amino-modified top strand
- binding result (Csa3Sso WT [8]): binds
